Measurements published in the nanobody polyreactivity screen of Harvey et al. (2022).

Test: yeast display, Sf9 membrane polyspecificity reagent, FACS + sequencing; frameworks hold sequencing errors
Outline: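 Synthetic nanobody libraries on Saccharomyces cerevisiae BJ5465 were galactose-induced for 36–48 hours, stained 1 hour at 4 °C with 10% biotinylated, detergent-solubilized Sf9 membrane reagent and enriched on streptavidin microbeads. FACS then separated cells into low and high (top ~1%) gates by anti-HA (expression) and streptavidin (reagent binding) fluorescence. Genes were colony-PCR amplified, MiSeq 2 × 250 sequenced and CDR-length filtered. A clone's polyreactivity label is that of its gate of origin.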

Sequence	polyreactivity (PSR sort gate)
QVQLVESGGGLVQAGGILRISCAASGRTSYWYAMAWYRQAPGKERELVADISWSGGSTYYADSVKGRFTISRDNAKNTVYLQMNSLNPEDTAVYYCIGAEQKYSIYYAFDTGPYDYWGQGTQVTVSS	low polyreactivity
QVQLVESGGGLVQAGGILRISCAASGSTFGWYTMGWYRQAPGKERELVAAITSRGTRTSYADSVTGRFTISRDIAKNTVYLQMNSLKTEDTAVYYCAARVFRGLGEYYWGQGTQVTVSS	high polyreactivity
QVQLVESGGGLVQAGGILRLICAASGSTFSTYAMGWYRPAPGKERELVAAIRFSGGTTYYADSVKGRFTISRDNAKNSVYLQMYCLKPEDTAVYYCAAVYISRNFFGRARGDYWGQGTEVTVSS	low polyreactivity
QVQLVESGGGLVQAGGILRLSCAAAGFIFYRYAMGWYREAPGKEREFVAAISRSGGSTYYADSVKGRFTISRDNAKNTVYLQMNSLKPEDTAVYYCAAGRVTISYFQDRLTTYDYWGQGTQVTVSS	high polyreactivity
QVQLVESGGGLVQAGGILRLSCAASGFIFWDYAMGWYRQAPGTERELVADISDSGGDTYYADSVKGRFTISRDNAKNTVYLQMNSLKPEDTAVYYCAADVELWVFRGQQYDYWGQVTQVTVSS	low polyreactivity
QVQLVESGGGLVQAGGILRLSCAASGFIFYFYAMGWYRQAPGKERELVAAISWSGGSTYYADSVKGRFTISRDNAKINVYLQMNSLKAEDTAVYFCAADLYHKYDYWGQGTQVTVSS	low polyreactivity
QVQLVESGGGLVQAGGILRLSCAASGFTFGPNTMGWNRQAPGKERELVAAISRSGGSTYYADSVKGRFTISRDNAKNTVYLQMNSLNPEDTAVYYCAAYSPLSGGRMDYWGQGTQVNVSS	high polyreactivity
QVQLVESGGGLVQAGGILRLSCAASGFTFISNAMGWYRQAPGKERELVAAISSSGGRTYYADSVKGRFTISRDNAKNTVYLQMNRLKPEDTAVYYCNADRSLLYSRKIEYDYWGQGTQVTVSS	low polyreactivity
QVQLVESGGGLVQAGGILRLSCAASGFTFLAYAMGWYRQAHGKERELVAAISAYSGRTRYADSVKGRFTISRDNAKNTVYLQMNSLKPEDTAVNYCAARYRGTYRRDYWGQGTQVTVSS	high polyreactivity
QVQLVESGGGLVQAGGILRLSCAASGFTFTYYAMGWYIQAPGKERELVAAITRDDSTNYADSVKGRFTISRDNAKNTVYLQMNSLKPEDTAVYYCAADSWYPSYGYWGQGTQVTVSS	low polyreactivity
QVQLVESGGGLVQAGGILRLSCAASGIIFDTNAMGWYRQAPGKERELVASISKRGGSTYYADSVKGRFTISRDNAKNTVYFQMNSLKPEDTAVYYCNALRRRLYHDDYWGQGTQVTVSS	high polyreactivity
QVQLVESGGGLVQAGGILRLSCAASGIIFRVNAMGWYRKAPGKERELVAAISGSGGRTYYADSVKGRFTISRDNAKNTVYLQMNSVKPEDTAVYYCAAHLLHYRGDYWGQGTQETVSS	high polyreactivity
QVQLVESGGGLVQAGGILRLSCAASGIIFVSYDRGWYRQAPGKERELVAAINRGGRTYYADSVKGRFTISRDNAKNTVYLQMNSLKPEDTAVYYCAAQFHFRPFSWTYDYWGQGTQVTVSS	high polyreactivity
QVQLVESGGGLVQAGGILRLSCAASGITFRCYAMVWYRQAPGKERELVAAITTGGSTKYADSVKGRFTISRDNAKKSVYLQMNSLKPEDTAVYYCAARGRYAGGYWGQGTQVTVSS	high polyreactivity
QVQLVESGGGLVQAGGILRLSCAASGITFRYYAMGWYRQAPGKERELVAAITGNGGGTYADSVKGRFTISRDTAKYTGYLQMNSLKPEVTAVNYCSADYGRRWGYDYWGQGTQVTVSS	low polyreactivity
QVQLVESGGGLVQAGGILRLSCAASGITFVRNAMGWYRQAPGKDREFVAAINSIVGRTYYADSVKGRFTISRDNAKNTVYLQMNSLKPEDTAVYDCAADSNVRYGMDYWGLGTQVTVSS	low polyreactivity

Sequence	polyreactivity (PSR sort gate)
QVQLVESGGGLVQAGGILRLSCAASGLIFGYYDMGWYRQARGKEREFVAGITYRGSSTYYADSVKGRFTISRDNAKNTVYLQMNSLKPEDTAVYYCAKYKRKKLTTNYYYWGQGTQVTVSS	high polyreactivity
QVQLVESGGGLVQAGGILRLSCAASGLIFIGYAMGWYRQAPGKERELVASIRGVGSTNYADSVKGRFTISRDNAKNTVYLQMNSLKPEDTAVYYCATSVDRALYTQTRGDYDYWGQGTQVTVSS	low polyreactivity
QVQLVESGGGLVQAGGILRLSCAASGLIFITYAMGWYRQAPGKERELVATITLRGGSTYYADSVKGRFTISRDNAKNTVYLQMNSLKPEDTAVYYCAADVGYWGRSRGYPSDDYDYWGQGTQVTVSS	low polyreactivity
QVQLVESGGGLVQAGGILRLSCAASGNILRFNARGWYRPAPGKEMELVAAISRSGGTTYYADSEKGRFTISRDYAKNTVYLQMNSLKPEDTAVYYCADRYRYGESPGYYWGHGTQVTVSS	high polyreactivity
QVQLVESGGGLVQAGGILRLSCAASGRIFGSYAMGWYRQAPGKERELVAVITKRGDSTYYADSVKGRFTISRDNAKNTVYLQMNSLKPEDTAVYYCNARVYPGYSFWAVFGYDYWGQGTQVTVSS	low polyreactivity
QVQLVESGGGLVQAGGILRLSCAASGRIFHRYTMGWYRQAPGKEREFVAAITTRAGSTYYADSVKGRFTISRDNAKYTVYLQMNSLKPEDTAVYYCNIRRHSLFGGTTTRYDYWGQGTQVTVSS	high polyreactivity
QVQLVESGGGLVQAGGILRLSCAASGRIFLTYAMGWYRQAPGKERELVAAIRSRSGTTYYADSVKGRFTISRDNAKNTVYLQMNSMKPEDTAVYYCAAGGKSRSYYWGQGTQVTVSS	high polyreactivity
QVQLVESGGGLVQAGGILRLSCAASGRIFRGYAMVWYRQAPGKERELVAAISNGGGTNYADSVKGRFTISRDNAKNTVYLQMNSLKPEDTAVYYFATGFLQNYYKYTSSFRFYYWGQGTQVSVSS	high polyreactivity
QVQLVESGGGLVQAGGILRLSCAASGRIFVLNPMGWSRQAPGKERELVAASSGSGSRTYYADSVKGRFTISRDNAKNTVYLQMNSLKPEDTEVYYCNTVSRRSEHTYDYWGQGTQVTVSS	high polyreactivity
QVQLVESGGGLVQAGGILRLSCAASGRIFYVNAMGWYRQAPGKERELVATIRRGGDTNYADSVKGRFTISRDNAKNTVYLQMNSLNPEDTAVYYCAAKAYQSSYQRYYWGQGTQVTVSS	high polyreactivity
QVQLVESGGGLVQAGGILRLSCAASGRITFSHNTMGWYIQAPGKERELVAAISSGGRTNYADSVKGRFTISRDNAKNTVYLQMNSLKPEDTAVYYCARESHYDFIYDGMDYWGQGTQVTVSS	low polyreactivity
QVQLVESGGGLVQAGGILRLSCAASGRTFAPYTMGWYRQAPGKERELVAVITRRDGRTYYADSVKGRFTISRDNAKNTFYLQMKSLKPEDNAVYYCCFLPADWYRPVRYLRTDSDYWGQGTKVTVSS	low polyreactivity
QVQLVESGGGLVQAGGILRLSCAASGRTFFSNAMGWYRQAPGKEREFVAAISNGDNTYYADSVKGRFTISSDNAKNTVYLQMNSLKPDDTAVYYCAADQYWSWIYYPVVEYDYWGLGTQVTVSS	low polyreactivity
QVQLVESGGGLVQAGGILRLSCAASGRTFNSYAMGWYRQAPGKERELVAAISWIGGSTYYADSVKGRFTISRDNAKNTVYLQMNSLKPEDTAVYYCAADSYRFYSGYYYWGQGTQVTVSS	low polyreactivity
QVQLVESGGGLVQAGGILRLSCAASGRTFYSNAMGWYRQAPGKARELVAAISRSGGRTYYADSVKGRFTISRDNAKISVYLQMNSLKTEDTAVYYCNKVRQNSSMDYWGQGTQVTVSS	high polyreactivity
